The target of assay [1] is T1, human PD-L1-Fc (R&D Systems) (human, UniProt Q9NZQ7 19-239).
T1 construct: Bought from R&D Systems; also called rhPD-L1-Fc; human PD-L1 Fc chimeric protein; not shown: the Fc part of the bought chimera is not described
Briefly: SPR (Biacore T200), PD-L1-Fc amine-coupled to CM5 chip, AFFIMER as analyte, 1:1 Langmuir fit. The protocol:
To analyze PD-L1-Fc binding kinetics, a Biacore T200 kinetic analysis was performed using running buffer HBS-EP+ and series S sensor CM5 (GE Healthcare) chip Fc2 immobilized with PD-L1-Fc (R&D Systems) in 10 mM sodium acetate pH 4.0 using amine coupling reagents (GE Healthcare). The concentration titration of ILF AFFIMER® proteins was run as analyte at a flow rate of 30 μl/min. […] with 3 mM NaOH (GE healthcare) for 20 seconds at 20 μl/min flow rate. The Fc2-1 data blank was subtracted and fit to a 1:1 Langmuir binding model (Biacore evaluation software; GE) to calculate an apparent KD value.
In general terms: In SPR one partner is held on a chip, and binding of the other changes the refractive index at the surface.

The target in assay [2] is T2, mouse serum albumin (MSA) (mouse, UniProt P07724 25-608). Description: SPR (Biacore) kinetic analysis, MSA, pH 6.0; reference HSA-18 monomer.
Assay [3] concerns the target T2, mouse serum albumin (MSA). Description: binding ELISA on coated MSA, pH 7.4 by the legend (the panel's title prints pH 7).
Assay [4] deals with T3, human serum albumin (HSA) (human, UniProt P02768 25-609).
T3 construct: mature; also called HuSA; HSA (Sigma)
T3 sequence (P02768 25-609): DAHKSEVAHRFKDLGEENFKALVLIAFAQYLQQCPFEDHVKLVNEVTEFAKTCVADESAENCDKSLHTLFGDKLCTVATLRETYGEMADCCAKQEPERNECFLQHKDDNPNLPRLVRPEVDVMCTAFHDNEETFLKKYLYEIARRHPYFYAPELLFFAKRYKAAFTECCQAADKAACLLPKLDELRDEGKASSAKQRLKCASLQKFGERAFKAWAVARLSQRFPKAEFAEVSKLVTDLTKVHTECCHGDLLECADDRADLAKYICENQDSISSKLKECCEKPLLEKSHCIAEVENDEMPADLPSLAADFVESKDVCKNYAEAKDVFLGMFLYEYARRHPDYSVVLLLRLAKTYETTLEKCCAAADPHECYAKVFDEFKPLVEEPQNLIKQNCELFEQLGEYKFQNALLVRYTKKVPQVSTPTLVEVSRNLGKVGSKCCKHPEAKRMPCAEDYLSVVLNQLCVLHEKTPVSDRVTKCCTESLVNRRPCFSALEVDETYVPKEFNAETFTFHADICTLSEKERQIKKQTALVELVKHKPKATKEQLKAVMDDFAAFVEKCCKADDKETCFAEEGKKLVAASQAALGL
Description: SPR (Biacore) kinetic analysis, pH 6.0 and pH 7.4 running buffer; the pH for each end is not stated; lower end of the range; pH 6.0 or pH 7.4 not told.

Assay [5] deals with PD-L1 (PD-1/PD-L1 blockade Bioassay, Promega) (UniProt Q9NZQ7 19-290, limits assumed). Description: cell-based or functional assay.
Sequence of PD-L1 (PD-1/PD-L1 blockade Bioassay, Promega) (Q9NZQ7 19-290 limits assumed): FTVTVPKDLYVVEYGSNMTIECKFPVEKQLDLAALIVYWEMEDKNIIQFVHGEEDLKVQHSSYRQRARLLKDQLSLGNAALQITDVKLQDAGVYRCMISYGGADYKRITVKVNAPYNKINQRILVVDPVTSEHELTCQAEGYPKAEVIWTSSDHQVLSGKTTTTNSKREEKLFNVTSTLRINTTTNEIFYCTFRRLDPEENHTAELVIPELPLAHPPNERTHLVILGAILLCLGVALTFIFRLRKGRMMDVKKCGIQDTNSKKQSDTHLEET

The text below walks through data of patent publication US20230272081A1 (AVACTA LIFE SCIENCES, published 2023).

T1 sequence (Q9NZQ7 19-239): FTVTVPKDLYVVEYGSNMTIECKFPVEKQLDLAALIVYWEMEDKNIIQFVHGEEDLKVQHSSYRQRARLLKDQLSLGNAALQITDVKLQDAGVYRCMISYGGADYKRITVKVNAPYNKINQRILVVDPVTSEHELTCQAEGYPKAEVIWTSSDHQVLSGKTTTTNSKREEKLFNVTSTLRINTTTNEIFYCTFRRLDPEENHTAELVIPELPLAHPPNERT

B1: AVA04-261 (designed binder)
chain: MIPRGLSEAKPATPEIQEIVDKVKPQLEEKTNETYGKLEAVQYKTQVLAHAYGPRDWDSTNYYIKVRAGDNKYMHLKVFNGPPADHVLEEAADRVLTGYQVDKNKDDELTGFHHHHHH
As usually defined, the Kd is the constant that tells how readily two partners part at equilibrium. Read a high Kd as a looser complex. By koff is commonly meant a measure of how fast the partners let go of each other. The kon is the second-order rate constant of association. The low end stands for slow association, the high end for fast association. In assay [1], B1 returned a Kd of 2.95 nM, a koff of 0.0109 s⁻¹ and a kon of 3.68e+06 M⁻¹ s⁻¹.

B2: AVA04-251 XT61 (designed binder)
chain: MIPRGLSEAKPATPEIQEIVDKVKPQLEEKTNETYGKLEAVQYKTQVLAREGRQDWVLSTNYYIKVRAGDNKYMHLKVFNGPWVPFPHQQLADRVLTGYQVDKNKDDELTGFAEAAAKEAAAKEAAAKEAAAKEAAAKEAAAKMIPRGLSEAKPATPEIQEIVDKVKPQLEEKTNETYGKLEAVQYKTQVLADWWQAKWPHSTNYYIKVRAGDNKYMHLKVFNGPYKVHQSSGGADRVLTGYQVDKNKDDELTGFAEAAAKEAAAKEAAAKEAAAKEAAAKEAAAKMIPRGLSEAKPATPEIQEIVDKVKPQLEEKTNETYGKLEAVQYKTQVLAREGRQDWVLSTNYYIKVRAGDNKYMHLKVFNGPWVPFPHQQLADRVLTGYQVDKNKDDELTGFHHHHHH
notes: Made in E. coli and purified on NiNTA
As for B2, in assay [2], the “fold of the monomer serum albumin binding AFFIMER affinity” value was ≤ 2 fold.

B3: HSA-41 (designed binder)
chain: MIPRGLSEAKPATPEIQEIVDKVKPQLEEKTNETYGKLEAVQYKTQVLANFFQRRWPGSTNYYIKVRAGDNKYMHLKVFNGPWKFRNTDRGADRVLTGYQVDKNKDDELTGFHHHHHH
notes: Made in E. coli; also called AVA-41; AFFIMER® XT “AVA-41”
As a reminder, the EC50 (read off the curve) is the concentration needed to bring the measured effect to its halfway point. Low readings indicate a more potent agent, high ones a less potent agent. On to B3, for which, in assay [3], the “EC50 (read off the curve)” value was ~5 nM.

B4: HSA-18 (designed binder)
chain: MIPRGLSEAKPATPEIQEIVDKVKPQLEEKTNETYGKLEAVQYKTQVLADWWQAKWPHSTNYYIKVRAGDNKYMHLKVFNGPYKVHQSSGGADRVLTGYQVDKNKDDELTGFHHHHHH
notes: also called HSA-18 monomer
In the case of B4, the Kd in assay [4] lay within 109 to 152 nM.

B5: AVA04-251 XT15 (designed binder)
chain: MIPRGLSEAKPATPEIQEIVDKVKPQLEEKTNETYGKLEAVQYKTQVLAREGRQDWVLSTNYYIKVRAGDNKYMHLKVFNGPWVPFPHQQLADRVLTGYQVDKNKDDELTGFAEAAAKEAAAKEAAAKEAAAKEAAAKEAAAKMIPRGLSEAKPATPEIQEIVDKVKPQLEEKTNETYGKLEAVQYKTQVLANFFQRRWPGSTNYYIKVRAGDNKYMHLKVFNGPWKFRNTDRGADRVLTGYQVDKNKDDELTGFAEAAAKEAAAKEAAAKEAAAKEAAAKEAAAKMIPRGLSEAKPATPEIQEIVDKVKPQLEEKTNETYGKLEAVQYKTQVLAREGRQDWVLSTNYYIKVRAGDNKYMHLKVFNGPWVPFPHQQLADRVLTGYQVDKNKDDELTGFHHHHHH
For the molecule B5, the “half-maximal concentration in the PD-1/PD-L1 blockade Bioassay (Promega), fold change relative to assay buffer; the table's head prints IC50 (nM), the text calls it EC50” value in assay [5] amounted to 434 nM.

B6: AVA04-236 (designed binder)
chain: MIPRGLSEAKPATPEIQEIVDKVKPQLEEKTNETYGKLEAVQYKTQVLAKEHGPDSWWSTNYYIKVRAGDNKYMHLKVFNGPQEKNQWVEEADRVLTGYQVDKNKDDELTGFHHHHHH
Consider B6, for which, in assay [1], binding was characterised by a dissociation constant (Kd) of 5.43 nM, the koff was found to be 0.00977 s⁻¹ and the kon came out at 1.8e+06 M⁻¹ s⁻¹.

B7: AVA04-269 (designed binder)
chain: MIPRGLSEAKPATPEIQEIVDKVKPQLEEKTNETYGKLEAVQYKTQVLAKEYGPEEWWSTNYYIKVRAGDNKYMHLKVFNGPGDYEQVLIHADRVLTGYQVDKNKDDELTGFHHHHHH
In assay [1], B7 registered a Kd of 1.68 nM, a koff of 0.00345 s⁻¹ and a kon of 2.05e+06 M⁻¹ s⁻¹.

B8: AVA04-251 XT14 (designed binder)
chain: MIPRGLSEAKPATPEIQEIVDKVKPQLEEKTNETYGKLEAVQYKTQVLAREGRQDWVLSTNYYIKVRAGDNKYMHLKVFNGPWVPFPHQQLADRVLTGYQVDKNKDDELTGFAEAAAKEAAAKEAAAKEAAAKEAAAKEAAAKMIPRGLSEAKPATPEIQEIVDKVKPQLEEKTNETYGKLEAVQYKTQVLAREGRQDWVLSTNYYIKVRAGDNKYMHLKVFNGPWVPFPHQQLADRVLTGYQVDKNKDDELTGFAEAAAKEAAAKEAAAKEAAAKEAAAKEAAAKMIPRGLSEAKPATPEIQEIVDKVKPQLEEKTNETYGKLEAVQYKTQVLANFFQRRWPGSTNYYIKVRAGDNKYMHLKVFNGPWKFRNTDRGADRVLTGYQVDKNKDDELTGFHHHHHH
As for B8, the “half-maximal concentration in the PD-1/PD-L1 blockade Bioassay (Promega), fold change relative to assay buffer; the table's head prints IC50 (nM), the text calls it EC50” value in assay [5] is 176 nM.

B9: AVA04-251 XT60 (designed binder)
chain: MIPRGLSEAKPATPEIQEIVDKVKPQLEEKTNETYGKLEAVQYKTQVLAREGRQDWVLSTNYYIKVRAGDNKYMHLKVFNGPWVPFPHQQLADRVLTGYQVDKNKDDELTGFAEAAAKEAAAKEAAAKEAAAKEAAAKEAAAKMIPRGLSEAKPATPEIQEIVDKVKPQLEEKTNETYGKLEAVQYKTQVLAREGRQDWVLSTNYYIKVRAGDNKYMHLKVFNGPWVPFPHQQLADRVLTGYQVDKNKDDELTGFAEAAAKEAAAKEAAAKEAAAKEAAAKEAAAKMIPRGLSEAKPATPEIQEIVDKVKPQLEEKTNETYGKLEAVQYKTQVLADWWQAKWPHSTNYYIKVRAGDNKYMHLKVFNGPYKVHQSSGGADRVLTGYQVDKNKDDELTGFHHHHHH
notes: as for B2
Regarding B9, the “fold of the monomer serum albumin binding AFFIMER affinity” value in assay [2] is ≤ 2 fold.
